In patent US20130230528A1 (Novartis, published 2013):
One block for each binder: values may come before it.

Assays:
[1] = target: T1, human CD40 on the cell surface (normal B cells, B-CLL cells, EBV-transformed B cells, multiple myeloma cell … (human, UniProt P25942 20-277)); assay: cell-based or functional assay
[2] = target: T1, human CD40 on the cell surface (normal …); assay: cell-based or functional assay; remark: listed apart in the source
[3] = target: T2, human CD40, soluble / recombinant (ELISA and Biacore) (human, UniProt P25942 20-193); assay: Biacore (assay named in paragraph 181)
T2 construct: also called soluble CD40; recombinant CD40

[4] = target: T1, human CD40 on the cell surface (normal …); assay: cell-based or functional assay; remark: listed apart in the source

T1 sequence (P25942 20-277): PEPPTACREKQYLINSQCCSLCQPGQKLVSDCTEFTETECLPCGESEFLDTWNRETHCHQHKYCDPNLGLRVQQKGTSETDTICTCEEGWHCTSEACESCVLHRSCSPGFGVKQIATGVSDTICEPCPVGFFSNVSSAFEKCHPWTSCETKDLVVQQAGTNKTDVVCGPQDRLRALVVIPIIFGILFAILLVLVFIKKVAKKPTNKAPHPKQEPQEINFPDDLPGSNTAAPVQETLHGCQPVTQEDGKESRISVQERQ
T2 sequence (P25942 20-193): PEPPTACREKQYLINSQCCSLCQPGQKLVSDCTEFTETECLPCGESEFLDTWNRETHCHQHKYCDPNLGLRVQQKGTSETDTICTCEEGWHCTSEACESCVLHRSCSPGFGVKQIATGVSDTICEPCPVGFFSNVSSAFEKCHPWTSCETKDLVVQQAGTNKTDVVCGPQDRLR

B1: CD40L on transfected, formaldehyde-fixed CHO cells (ligand)
chain: MIETYNQTSPRSAATGLPISMKIFMYLLTVFLITQMIGSALFAVYLHRRLDKIEDERNLHEDFVFMKTIQRCNTGERSLSLLNCEEIKSQFEGFVKDIMLNKEETKKENSFEMQKGDQNPQIAAHVISEASSKTTSVLQWAEKGYYTMSNNLVTLENGKQLTVKRQGLYYIYAQVTFCSNREASSQAPFIASLCLKSPGRFERILLRAANTHSSAKPCGQQSIHLGGVFELQPGASVFVNVTDPSQVSHGTGFTSFGLLKL
MCP-1 secretion, normal B cells, Donor 1, fold induction over background [1]: 5.5 fold | MCP-1 secretion, normal B cells, Donor 3, fold induction over background [1]: 1.7 fold | MIP-1β secretion, normal B cells, Donor 1, fold induction over background [1]: 2.2 fold | MIP-1β secretion, normal B cells, Donor 2, fold induction over background [1]: 2.6 fold | MIP-1β secretion, normal B cells, Donor 3, fold induction over background [1]: 17.8 fold | hIL-6 secretion, normal B cells, Donor 1, fold induction over background [1]: 5.7 fold | hIL-6 secretion, normal B cells, Donor 2, fold induction over background [1]: 3.8 fold | hIL-6 secretion, normal B cells, Donor 3, fold induction over background [1]: 20.5 fold | hIL-8 secretion, normal B cells, Donor 1, fold induction over background [1]: 7.7 fold | hIL-8 secretion, normal B cells, Donor 2, fold induction over background [1]: 14.7 fold | hIL-8 secretion, normal B cells, Donor 3, fold induction over background [1]: 49.3 fold | hIL-10 secretion, normal B cells, Donor 1, fold induction over background [1]: 3.6 fold | hIL-10 secretion, normal B cells, Donor 3, fold induction over background [1]: 3.6 fold | hTNF-α secretion, normal B cells, Donor 1, fold induction over background [1]: 3.7 fold | hTNF-α secretion, normal B cells, Donor 2, fold induction over background [1]: 4.8 fold | hTNF-α secretion, normal B cells, Donor 3, fold induction over background [1]: 22.8 fold | MCP-1 secretion, CLL cells, CLL #1, fold induction over background [2]: 5.5 fold | hGM-CSF secretion, CLL cells, CLL #1, fold induction over background [2]: 7.6 fold | hIL-8 secretion, CLL cells, CLL #1, fold induction over background [2]: 4 fold | hIL-10 secretion, CLL cells, CLL #1, fold induction over background [2]: 9.2 fold | hTNF-α secretion, CLL cells, CLL #1, fold induction over background [2]: 3.3 fold

B2: CHIR-5.9 fully human anti-CD40 monoclonal antibody (antibody, V domains shown)
VH: EVQLVQSGAEVKKPGESLKISCKGSGYSFTSYWIGWVRQMPGKGLEWMGIIYPGDSDTRYSPSFQGQVTISADKSISTAYLQWSSLKASDTAMYYCARGTAAGRDYYYYYGMDVWGQGTTVTVSS
VL: AIVMTQPPLSSPVTLGQPASISCRSSQSLVHSDGNTYLNWLQQRPGQPPRLLIYKFFRRLSGVPDRFSGSGAGTDFTLKISRVEAEDVGVYYCMQVTQFPHTFGQGTRLEIKR
notes: Human IgG1 kappa from XenoMouse hybridoma; also called mAb CHIR-5.9; 131.2F8.5.9
Kd [3]: 12 nM

Continued, in another order:

Kd [3]: 0.5 nM
B3: CHIR-12.12 fully human anti-CD40 monoclonal antibody (antibody, human IgG1, kappa, V domains shown)
VH: QVQLVESGGGVVQPGRSLRLSCAASGFTFSSYGMHWVRQAPGKGLEWVAVISYEESNRYHADSVKGRFTISRDNSKITLYLQMNSLRTEDTAVYYCARDGGIAAPGPDYWGQGTLVTVSS
VL: DIVMTQSPLSLTVTPGEPASISCRSSQSLLYSNGYNYLDWYLQKPGQSPQVLISLGSNRASGVPDRFSGSGSGTDFTLKISRVEAEDVGVYYCMQARQTPFTFGPGTKVDIRR
notes: Human IgG1 kappa from XenoMouse hybridoma; also called 153.8E2.D10.D6.12.12

cPARP flow cytometry, fold inhibition by rhsCD40L, CLL subject M1 [4]: 5.8 fold | cPARP flow cytometry, fold inhibition by rhsCD40L, CLL subject M2 [4]: 2.6 fold | cPARP flow cytometry, fold inhibition by rhsCD40L, CLL subject M3 [4]: 2.1 fold | cPARP flow cytometry, fold inhibition by rhsCD40L, CLL subject M4 [4]: 3.2 fold | cPARP flow cytometry, fold inhibition by rhsCD40L, CLL subject M5 [4]: 2.3 fold | cPARP flow cytometry, fold inhibition by rhsCD40L, CLL subject M6 [4]: 0.9 fold | cPARP flow cytometry, fold inhibition by rhsCD40L, CLL subject M7 [4]: 5.2 fold | cPARP flow cytometry, fold inhibition by rhsCD40L, Normal B [4]: 3 fold
B4: soluble recombinant human CD40L (Alexis Corporation) (ligand)
chain: GDQNPQIAAHVISEASSKTTSVLQWAEKGYYTMSNNLVTLENGKQLTVKRQGLYYIYAQVTFCSNREASSQAPFIASLCLKSPGRFERILLRAANTHSSAKPCGQQSIHLGGVFELQPGASVFVNVTDPSQVSHGTGFTSFGLLKL
CellTiter-Glo viability, fold induction by rhsCD40L, CLL subject M1 [4]: 3.1 fold | CellTiter-Glo viability, fold induction by rhsCD40L, CLL subject M2 [4]: 2.9 fold | CellTiter-Glo viability, fold induction by rhsCD40L, CLL subject M3 [4]: 1.9 fold | CellTiter-Glo viability, fold induction by rhsCD40L, CLL subject M4 [4]: 2.3 fold | CellTiter-Glo viability, fold induction by rhsCD40L, CLL subject M5 [4]: 3.5 fold | CellTiter-Glo viability, fold induction by rhsCD40L, CLL subject M6 [4]: 2.6 fold | CellTiter-Glo viability, fold induction by rhsCD40L, CLL subject M7 [4]: 3.8 fold | CellTiter-Glo viability, fold induction by rhsCD40L, Normal B [4]: 3 fold
